Common to all, as to assay: SPR
Background: SPR reads the build-up and loss of mass on a sensor chip optically.

In experiment [1] the target is C-terminal His6-tagged human UDG (uracil-DNA glycosylase) (human).
In experiment [2] the target is C-terminal His6-tagged SAUDG (S. aureus uracil-DNA glycosylase) (S. aureus) (UniProt Q6GJ88).
Experiment [3] addresses T1, C-terminal His6-tagged SAUDG (S. aureus uracil-DNA glycosylase) (S. aureus, UniProt Q6GJ88 1-218).
T1 sequence (looked up): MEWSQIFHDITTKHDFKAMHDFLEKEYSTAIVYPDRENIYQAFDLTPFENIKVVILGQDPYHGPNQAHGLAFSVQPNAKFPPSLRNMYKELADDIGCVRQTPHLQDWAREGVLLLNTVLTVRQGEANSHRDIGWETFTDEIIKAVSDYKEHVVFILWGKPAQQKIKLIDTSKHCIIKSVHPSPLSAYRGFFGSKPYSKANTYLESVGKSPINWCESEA

The Kd is the concentration at which binding is half-saturated. Higher therefore signals lower affinity. A word on the koff: it is a measure of how fast the partners let go of each other. Lower therefore signals slow dissociation. What is called kon is a measure of how fast the partners come together. A higher kon goes with fast association.

As for “tag-free SAUGI (Staphylococcus aureus uracil-DNA glycosylase inhibitor) (natural protein)”, in experiment [1], the Kd is 2.51 nM, the koff turned out to be 0.00124 s⁻¹ and the kon was 496000 M⁻¹ s⁻¹. In experiment [2], this molecule showed a dissociation constant (Kd) of 1.2 nM, a koff of 0.00296 s⁻¹ and a kon of 2.47e+06 M⁻¹ s⁻¹.
In experiment [1], “uracil-DNA glycosylase inhibitor from phage PBS2 (UGI) (from UniProt P14739 1-84) (natural protein)” came in with an equilibrium dissociation constant (Kd) of 0.189 nM, a koff of 0.00119 s⁻¹ and a kon of 6.32e+06 M⁻¹ s⁻¹.

B1: uracil-DNA glycosylase inhibitor from phage PBS2 (UGI) (natural protein)
chain: MTNLSDIIEKETGKQLVIQESILMLPEEVEEVIGNKPESDILVHTAYDESTDENVMLLTSDAPEYKPWALVIQDSNGENKIKML
As for B1, in experiment [3], the equilibrium dissociation constant (Kd) is 0.685 ± 0.08 nM, the off-rate (koff) worked out at 0.0061 ± 0.00068 s⁻¹ and the kon is 8.9e+06 ± 419000 M⁻¹ s⁻¹.
